Experimental data reported in patent US20260234241A1.
Read-outs that look alike come from different tables or passages of the source.

Key:
[1] = biological target: human BCMA (on cells) (human) (UniProt Q02223); assay: FACS on human BCMA-CHOK1 cells
[2] = biological target: cynomolgus monkey BCMA (on cells) (cynomolgus monkey); assay: FACS on cynomolgus BCMA-CHOK1 cells
[3] = biological target: human CD3 (on Jurkat cells and human PBMCs) (human) (UniProt P07766); assay: FACS on human PBMCs
[4] = biological target: human BCMA (on cells) (human) (UniProt Q02223); assay: FACS on RPMI8226 cells (express BCMA and GPRC5D)
[5] = biological target: human BCMA (on cells) (human) (UniProt Q02223); assay: FACS on NCI-H929 cells (express BCMA and GPRC5D)
soluble BCMA = assay: cell-based or functional assay
[6] = biological target: human CD3 (on Jurkat cells and human PBMCs) (human) (UniProt P07766); assay: FACS on Jurkat cells
[7] = biological target: cynomolgus monkey CD3 (on cyno PBMCs) (cynomolgus monkey) (UniProt Q95LI5); assay: FACS on cyno PBMCs
human GPRC5D (human) [8] = biological target: human GPRC5D (human) (UniProt Q9NZD1); assay: FACS on human GPRC5D-CHOK1 cells
[9] = biological target: cynomolgus monkey GPRC5D (cynomolgus monkey); assay: FACS on cynomolgus GPRC5D-CHOK1 cells
human GPRC5D (human) [10] = biological target: human GPRC5D (human) (UniProt Q9NZD1); assay: FACS on NCI-H929 cells (GPRC5D-expressing)
[11] = biological target: cynomolgus monkey GPRC5D (cynomolgus monkey); assay: FACS on cynomolgus GPRC5D-CHOK1 cells; remark: listed apart in the source
[12] = biological target: cynomolgus monkey BCMA (on cells) (cynomolgus monkey); assay: FACS on cynomolgus BCMA-CHOK1 cells; remark: listed apart in the source
[13] = biological target: human BCMA (on cells) (human) (UniProt Q02223); assay: FACS on human BCMA-CHOK1 cells; remark: listed apart in the source
[14] = biological target: RPMI8226 tumor cells expressing the dual targets BCMA and GPRC5D; assay: FACS on RPMI8226 cells (express BCMA and GPRC5D)
[15] = biological target: NCI-H929 tumor cells expressing the dual targets BCMA and GPRC5D; assay: FACS on NCI-H929 cells (express BCMA and GPRC5D)

Sequence of cynomolgus monkey BCMA (on cells) (cynomolgus monkey) (Q02223 other isoform, or with tags, fused parts or gaps): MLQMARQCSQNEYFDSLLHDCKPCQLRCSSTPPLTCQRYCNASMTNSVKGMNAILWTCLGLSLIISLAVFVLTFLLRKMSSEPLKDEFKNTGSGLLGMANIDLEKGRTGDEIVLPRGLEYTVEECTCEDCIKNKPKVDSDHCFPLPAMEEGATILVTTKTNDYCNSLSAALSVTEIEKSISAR
Sequence of human BCMA (on cells) (human) (Q02223 whole entry): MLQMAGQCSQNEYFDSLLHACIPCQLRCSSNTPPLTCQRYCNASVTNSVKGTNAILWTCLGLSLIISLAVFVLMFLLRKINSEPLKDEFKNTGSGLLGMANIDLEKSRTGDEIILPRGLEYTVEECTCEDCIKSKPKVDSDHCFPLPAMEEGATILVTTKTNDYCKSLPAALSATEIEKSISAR
Sequence of human GPRC5D (human) (Q9NZD1 whole entry): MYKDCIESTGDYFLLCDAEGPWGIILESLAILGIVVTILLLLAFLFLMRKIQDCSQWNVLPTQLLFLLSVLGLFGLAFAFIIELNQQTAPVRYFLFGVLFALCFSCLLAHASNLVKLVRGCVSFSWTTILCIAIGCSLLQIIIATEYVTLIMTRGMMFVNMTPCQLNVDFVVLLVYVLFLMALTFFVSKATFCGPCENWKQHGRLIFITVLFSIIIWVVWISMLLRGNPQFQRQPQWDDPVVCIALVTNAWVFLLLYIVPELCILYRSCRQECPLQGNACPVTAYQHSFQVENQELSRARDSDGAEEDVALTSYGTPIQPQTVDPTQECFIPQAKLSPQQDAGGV
Sequence of human CD3 (on Jurkat cells and human PBMCs) (human) (P07766 23-207): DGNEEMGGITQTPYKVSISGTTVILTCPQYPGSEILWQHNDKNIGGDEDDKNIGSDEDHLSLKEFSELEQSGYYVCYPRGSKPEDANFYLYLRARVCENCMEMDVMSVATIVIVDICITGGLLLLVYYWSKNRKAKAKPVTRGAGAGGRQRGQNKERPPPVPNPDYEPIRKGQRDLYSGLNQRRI
Sequence of cynomolgus monkey GPRC5D (cynomolgus monkey) (Q9NZD1 other isoform, or with tags, fused parts or gaps): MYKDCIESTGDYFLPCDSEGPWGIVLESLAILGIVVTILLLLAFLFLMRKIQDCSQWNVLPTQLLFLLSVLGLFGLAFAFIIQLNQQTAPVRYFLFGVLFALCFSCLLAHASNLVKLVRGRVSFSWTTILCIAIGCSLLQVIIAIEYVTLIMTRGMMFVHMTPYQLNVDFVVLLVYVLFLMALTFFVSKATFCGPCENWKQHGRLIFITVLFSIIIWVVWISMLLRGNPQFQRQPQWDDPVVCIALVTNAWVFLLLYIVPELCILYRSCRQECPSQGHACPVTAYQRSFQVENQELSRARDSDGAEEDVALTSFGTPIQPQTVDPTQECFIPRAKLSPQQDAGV
Sequence of cynomolgus monkey CD3 (on cyno PBMCs) (cynomolgus monkey) (Q95LI5 22-198): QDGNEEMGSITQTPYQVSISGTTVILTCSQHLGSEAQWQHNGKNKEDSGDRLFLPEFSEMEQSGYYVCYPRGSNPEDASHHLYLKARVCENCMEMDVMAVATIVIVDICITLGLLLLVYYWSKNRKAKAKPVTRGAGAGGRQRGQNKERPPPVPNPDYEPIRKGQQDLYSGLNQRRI

Row | Top MFI [1] | Top MFI [2] | Top MFI [3] | Top MFI [4] | Top MFI [5] | Fold change of TDCC EC50 on NCI-H929 cells in the presence of 2500 ng/ml soluble BCMA (soluble BCMA) [fold] | Ratio (EC50) of TDCC on NCI-H929 cells, 2.5 ug/ml against 0 ug/ml soluble BCMA (soluble BCMA) [fold] | fold change of the TDCC EC50 on NCI-H929 cells in the presence of 2500 ng/ml soluble BCMA (soluble BCMA) [fold] | Top MFI [6] | Top MFI [7] | Top MFI (human GPRC5D (human) [8]) | Top MFI [9] | Top MFI (human GPRC5D (human) [10]) | Top MFI [11] | Top MFI [12] | Top MFI [13] | Top MFI [14] | Top MFI [15] | Substance
1 | 2280 | 1770 | 672 | 169 | 669 | 25 | 21 | 25 | 825 | 2060 | 160 | – | – | – | – | – | – | – | Teclistamab analogue (BCMA/CD3) (bispecific antibody)
2 | 89.1 | 82.6 | – | – | – | – | – | – | – | – | 36 | 1840 | 178 | 85 | 382 | 232 | – | – | IgG1 AA (antibody)
3 | 119 | – | 96.1 | – | – | – | – | – | 77.6 | 93.3 | 100 | – | – | – | – | – | 112 | 104 | hIgG1 LALA isotype (antibody)
